Tests used:
[1] = molecular target: ErNaR, NDQ rhodopsin (light-driven sodium pump) from Erythrobacter sp. HL-111 (Erythrobacter sp. HL-111); experiment: SEC
[2] = molecular target: ErNaR, NDQ rhodopsin (light-driven sodium pump) from Erythrobacter sp. HL-111 (Erythrobacter sp. HL-111); experiment: cryo-EM structure
[3] = molecular target: ErNaR, NDQ rhodopsin (light-driven sodium pump) from Erythrobacter sp. HL-111 (Erythrobacter sp. HL-111); experiment: cryo-EM structure; remark: listed apart in the source
[4] = molecular target: ErNaR, NDQ rhodopsin (light-driven sodium pump) from Erythrobacter sp. HL-111 (Erythrobacter sp. HL-111); experiment: SEC; remark: listed apart in the source

Measured: stoichiometry N

ErNaR, NDQ rhodopsin (light-driven sodium pump) from Erythrobacter sp. HL-111 (natural protein)
5: all assays above
